Data taken from a protein production outcome set (Wang et al. 2014).

Experiment: label from the status in PepcDB records

| Sequence | protein production |
| --- | --- |
| MILFSPVARDSAAGQAAALRAPVSLQDDTLKIFGFDDQSVGQPLSGGTDILACLTLFNEPAEAVAGTLAFLAANQDMLASRNGPIQRLEVAIVLDGRDRVHPETEALFNRLGFDLDWGCDPEAAGIGQHGADEAQVRVQTRLIPVDLLTGVSGNPLRVHLAVKDRNRGKLDSHAFFFRSLAERLQPDFVLQIDAGSRPVADCLPALLAQMEREPDCAALATNIVMEDAALTDWLQSWQQADFLWQKLSDWPIGNGLGYLEVVPGQASLLRMSALRRGANGDPLAAYLRGLSRPKSLMEANLFLAEDRIIGAEIVKSHPACTIRYHHDANLVTDGCATVGELLRQRRRWTNSTLVARLVAIGSLADLLWHGRLPPARWCSMALALAWTLLQLLEQWFIPASLALLVSLTSGFWQDEAKNGVAGQGLAWGMATGVLLFWLYCLASMKGREGERSLSRRLHGGLHGLGLGILLACTVLGFAICLVEVGPVIQGAILTVALILGMAVWHHSSRGMSDLLRVFVLYIPSAPVASFYLLSYALANFHDVSWGTKGLVGDIKAVIPAGWRRMRLRLLILWVVSNTALVWLVMGVVPGGAISVLHYACLPVVGQIAIASLLLLSASCRKPVSPSPEVTVRAGSGPHLHR | failed |
| MPKILWKSLHLCFPSNLTKCYSSPCIPPSSADPDGIIQPNRPSIVLLNNFNLLYHNDNHHHPHRVIDLPSSSTTTTPAATSSSSTSSYESDISPDVSAAFASRRFFFSSPGRSNAITDSPEPRSREFSDNYDDATITSTKKKKKKVYDNSVTTTTTRLISGGTAVTQHVDSPDPLTDFRRSMQEMIDAAIDAGELSRDPNDGYDFLDELLLTYLSLNPADTHKFVIRAFSDILVSLLSEERRIC | failed |
| MQYGAIVVTFNRKQLLIESITALLNQTVPPAKIIIIDNHSTDGTKAELQTADILANPSVDYRYLTKNIGGAGGFARGMQIAAADPNLDWASMSDDDAIFEPDYFEKLIAYQQDHPNRQILTGSVYIEDGRLQADQRNRFTNWSTFQAQAVPEREYRGNFEFDQYTFCGVFMSVAVIKQVGVADAGYFIWWDDCEYAVRTAKLSRPVNVSAAKLIHKTALPSLDFKSKFVPDWRLYYGQRNRLITIKRWRANSLVSLGWLLGFYARLAIQLCGPFYRGYRKMVIRVYLEALRDASREREGLNPNFMPGQKFLEHHHHHH | not failed |
| MTMLQIVGALILLIAGFAILRLLFRALTSTASALAGFILLCLFGPALLAGYITERITRLFHIRWLAGVFLTIAGMIISFMWGLDGKHIALEAHTFDSVKFILTTALAAGLLALPVQIRTIQQNGLTPEDISKEINGYYCCFYTAFFLMACSAYAPLIALQFDISPSLMWWGGLLYWLAALVTLLWAASQIQALKRLTSAISQTLEEQPVLNSKSWLSSLQNDYSLPETLTERIWLTLISQRISRGELREFELADGNWLLDNAWYERNMAGFNEKLRESLSFTPDELKTLFRNRLNLSPEANDDFLDRCLDGGDWYPFSEGRRFVSFHHVDELRICASCGLTEVHHAPENHKPDPEWYCSSLCRETETLCQDIYERSHTGFISDATANGLILMKLPETWSTNEKMFASGGQGHGFAAERGNHIVDRVRLKNARILGDNNARNGADRLVSGTEIQTKYCSTAVRSVGAAFDGQNGQYRYMGNHGPMQLEVPRDQYAGAVETMKNKIREGKVPGVTDPAEASRLIRRGHLTYTQARNITRFGTIESVTYDIAEGSVVSLAAGGISFALTTSVFWLSTGDRDAALQTAAVQAGKTFTRTLAVYVTTQQLHRLSVVQGMLKHIDFSTASPTVRQALQKGTGAGNISALNKVMKGTLVTSLALVAVTTGPDMIKMLRGRISGAQFIRNLAVASSGVAGGAVGSVAGGILFSPLGPFGALTGRVVGGVLGGMIASAVSGKIAGALVEEDRVKILAMIQEQVTWLAGSFLLTGHEIENLNANLARVIDQNALEIIFAAGIQQRAATNMLIKPLVVSIIRQRPVMEYDASHLGNMVNRLEETLPPELPA | failed |
| MSSTPATPAISPTQQSALALWRMRLITLLPLGAIAWISMVLADHPAIAHYGLSALTLAMGAGMVAANTMPKHWLAPLAPGMQFARHHLLRLGVALYGLRLTFGAIAALGVGGVVVPLTMLVATLLFGTWVGSSFFGLSRREAILVSAGSAVCGAAAAIAVSSVVRTDDRQTAVAVATVVLFGTVGMLLYPWLYELATQHWHLAISERSFGIFTGATLHEVAQVIASGKMVSDGAADAAVVAKMVRVLALGPLLLVMALWPRTSWSQASGGSRNLHGLLRSVPWFALGFVAVMALNSAQMVPADWKPALIGFDNWMLACAMLAIGLHTRIGDLLRAGRKPLALAGVLFLFLMVVGAALCALLV | failed |
| MVVVMNPEQIYGVSNIKSHIPVMLDIEESNYDAWRELFLTHCLSFDVMGHIDGTLLPTNANDVNWQKRDGIVKLSLYGTLTPKQFQGSFVTSSTSRDIWLRIKNQFRNNKDARALRLDSELRTKDIGDMRVADYYRKMKKLADSLRNVDVPVTDRNLVMYVLNGLNPKFDNIINVIKHRQPFPSFDDAATMLQEEEDRLKRAIKPNPTHVDHSSSSTVLACSEAPPVTNFQRSGGNQMGYRGRGRGNNIFRGRGGRFSYYNMPTFNSWNRPPFYQNSYQMWNHPWGYPPYVNTNGGNGLGLLGPRPAY | failed |
| MEKQIFCQFLVVMMLLSSSQIQGDLRKGCYDLGITVLMGCPDSIDKKLPAPPTPSEGCCTLVRTIGMKCVCEIVNKKIEDTIDMQKLVNVAAACGRPLAPGSQCGSYRVPGA | failed |
| MVEIEYRKTRIKLGDTDLVYEPAEDSFLLADAALKDAKPGMRILEIGTGSGFVSSVLLTNLKEIYLVATEINPHAARCAKMNGVKVIRTDLFKGIKSKNPENLFDLILFNPPYLPTSEEEKVPGWLNYAFDGGISGRDTLDRFLDEVRDYLKLGGEILVLISSITGLDAVKAKMEKLGFEVEVVARKKVSFEELMVVKGKLL | failed |
| SKLNERSVAHYALSDSPADHMGFLRTWGGPGTPPTPSGTGRRCWFVLKGNLLFSFESREGRAPLSLVVLEGCTVELAEAPVPEEFAFAICFDAPGVRPHLLAAEGPAAQEAWVKVLSRASFGYMRLVVRELESQLQDARQSLALQRRSSWKSVASRCKPQAPNHRAAGLENGHCLSKDSSPVGLVEEAGSRSAGWGLAEWELQGPASLLLGKGQSPVSPETSCFSTLHDWYGQEIVELRQCWQKRAQGSHSKCEEQDRP | not failed |
| MKVITSLISSILLKFIHKDFHEIYARMSLLDRFLLLIVHGVDKMVPWHKLPVFLGLTYLEVRRHLHQQYNLLNVGQTPTGIRFDPANYPYRTADGKFNDPFNEGVGSQNSFFGRNCPPVDQKSKLRRPDPMVVATKLLGRKKFIDTGKQFNMIAASWIQFMIHDWIDHLEDTHQIELVAPKEVASKCPLSSFRFLKTKEVPTGFFEIKTGSQNIRTPWWDSSVIYGSNSKTLDRVRTYKDGKLKISEETGLLLHDEDGLAISGDIRNSWAGVSALQALFIKEHNAVCDALKDEDDDLEDEDLYRYARLVTSAVVAKIHTIDWTVQLLKTDTLLAGMRANWYGLLGKKFKDSFGHAGSSILGGVVGMKKPQNHGVPYSLTEDFTSVYRMHSLLPDQLHILDIDDVPGTNKSLPLIQEISMRDLIGRKGEETMSHIGFTKLMVSMGHQASGALELMNYPMWLRDIVPHDPNGQARPDHVDLAALEIYRDRERSVPRYNEFRRSMFMIPITKWEDLTEDEEAIEVLDDVYDGDVEELDLLVGLMAEKKIKGFAISETAFYIFLIMATRRLEADRFFTSDFNETIYTKKGLEWVNTTESLKDVIDRHYPDMTDKWMNSESAFSVWDSPPLTKNPIPLYLRIPS | failed |
| MRSTKTNAMEAIMKKFMGIATAAVFGLGIFTTSAKAETIVTTDVLNVRENPTTESKVVGKLLDGYKVNVLHTENGWSKVQLNSGKEAFISADYTKDTYYVTANVLNVRAGANTDSEILGKLKKDDVIETTHQVQNDWIQFEYNGKTAYVHVPYLTGKAPVKVQPVAKVEKTTTVQDTAKVREAAKAQEVAETQAKAKAVEATKAREAAEAQAEVKAQEAAKAREAAKAQEAAKAQADAEAQAEVKAQEAAKAREAAKAQADAEAQAAAKAQEAAKAREAAKAQEAAEAREAAKAQEAREAAKAQEAAKAQKSATQQPVAKETETSTPSSSRELRVVATAYTADPLENGYKAGDQVKSALGHNLTANPNMKLIAVDPSVIPLGSKVWVEGYGVAIAGDTGGAIKGNKIDVLMPDKGSSSSWGRKTVTVKVLNLEHHHHHH | not failed |
| MTQTGSARFEGDSWDLASSVGLTATMVAAARAVAGRAPGALVNDQFAEPLVRAVGVDFFVRMASGELDPDELAEDEANGLRRFADAMAIRTHYFDNFFLDATRAGIRQAVILASGLDSRAYRLRWPAGTIVFEVDQPQVIDFKTTTLAGLGAAPTTDRRTVAVDLRDDWPTALQKAGFDNAQRTAWIAEGLLGYLSAEAQDRLLDQITAQSVPGSQFATEVLRDINRLNEEELRGRMRRLAERFRRHGLDLDMSGLVYFGDRTDARTYLADHGWRTASASTTDLLAEHGLPPIDGDDAPFGEVIYVSAELKQKHQDTR | not failed |
| MELETLFVIGMFLTFGALLMTGYPVAWVLGGTAVIWTVVGVVAVENFGANLWFDYQSSMGLVPERIWKVVSSETLVALPMFIFMGIMLDQSGVAERLMNSMVKLFGAVRGGYAVTVIVIGVLLAATTGIIGASVVLLGMLSLPVMMENKYDKGFAVGTACATGTLGILIPPSIMLVLMADRLAVPEASVGDLFMGAFFPGLMLGAMYVAYAIIRPMLQPNIAPVPEGTEKVSWAIVWDVAKAVVPTAALILGVLGSIFAGIATPTEASGVGALGALLLALMSGRLNLNVLNSSMQQTTRTAAFIFAIFLGATAFSVVLRGLGGDQVIEDALLGLPFGPYGVVLTILLGVFLLGFFLDWVEITLIILPLVAPVVQQLGFDLVWFTILFAMCLQTSFLTPPVGFALFYIKGVAPPEIKVTDIYRGVIPFIIIQLVALAIVFVVPEIATWLPGVAYD | failed |
| MWTVLIINLLIAIVLTYFGLKERNENFSWFTASGAFIVFGLILLISTIPVFNDFNESSLLMFIGGILSILGIITLIIGLVTRAVKIVSLRDVAIAMEIAAVCVIYLIHNLDLSFINLFVPELSVIIGFLLFVFSRKKN | failed |
| MSLLEKDINLKIFKGNLIFTKTSDKFTIMKDSYIVVIDGKIASVSSNLPDKYKGNPIIDFRNNIIIPGMNDLHAHASQYKNLGIGMDKELLPWLNNYTFPEEAKFLNVDYAKKTYGRLIKDLIKNGTTRVALFATLHKDSTIELFNMLIKSGIGAYVGKVNMDYNCPDYLTENYITSLNDTEEIILKYKDKSNIVKPIITPRFVPSCSNELMDGLGKLSYKYRLPVQSHLSENLDEIAVVKSLHKKSNFYGEVYDKFGLFGNTPTLMAHCIHSSKEEINLIKRNNVTIVHCPTSNFNLGSGMMPVRKYLNLGINVVLGSDISAGHTCSLFKVIAYAIQNSKIKWQESGKKDMFLSTSEAFYMATKKGGSFFGKVGSFEEGYDFDALVINDSNLYPEDYDLTERLERFIYLGDDRNIMKRYVCGNEIFGPKFEGHHHHHH | not failed |
| MDTPSRRSFLLAGGSFAIGVGAGLGIAHRDDVLPSRVVWAFETTGRIVSSPTVGDGTVYVGSDDSTVHSVSTSDGTRRTTARLHTKAGVFSSPALGADGGLYVGSTDTAIYGLFSSPGARDEWRFETTDWVTASPAVADGTVYVGSTDGTMYALNAETGAEQWRFETGDGIVSSPAVVDGTVYVGSTDGTVYALDADSGTDRWQFDTEGRVYSSPTVADGTVYVGSYDANIYAIDTTDGVEQWQFETGDSIWSSPTVLEETLWIGSKDAALYAVATEDGSEQWRFPTGGEVNSSPTVAGETVYVGSDDANLYAVAASDGSERWTFETGGAVQSSPTVADGTVYVGSGDSTLYALDADETGSSEGSRAELRTLGYFAE | failed |
| MDLWKLYQPGTPAAIVAWGQLGTAHAKTTYGLLRHSRLFKPVCVVAEHEGKMASDFVKPVRYDVPVVSSVEKAKEMGAEVLIIGVSNPGGYLEEQIATLVKKALSLGMDVISGLHFKISQQTEFLKIAHENGTRIIDIRIPPLELDVLRGGIYRKKIKVVGVFGTDCVVGKRTTAVQLWERALEKGIKAGFLATGQTGILIGADAGYVIDAVPADFVSGVVEKAVLKLEKTGKEIVFVEGQGALRHPAYGQVTLGLLYGSNPDVVFLVHDPSRDHFESFPEIPKKPDFEEERRLIETLSNAKVIGGVSLNGGFETDLPVYDPFNTDDLDEMLERAMVW | not failed |
